These results are taken from patent US12527876B2, “Insulin-like growth factor-chemotherapeutic conjugate for treating myelodysplastic syndrome” (IGF Oncology, LLC, priority 2017, dated 2026).

Series [1] concerns LNCaP cells. Put plainly: In vitro proliferation assay of LNCaP cells, Cell Counting Kit-8. The class given is cell-based, human. To be noted: highest tested concentration of 2000 nM, P=0.003, IGF-MTX = long-R3-IGF conjugate. How it is done:
LNCaP cells were plated in a 96-well plate at 5,000 cells per well in RPMI+glutamine+10% FCS medium in 100 μl. After 24 hours, 100 μl fresh medium was added containing no drug (control), IGF-MTX or MTX at the indicated concentration. After 48 hours of further incubation, cell proliferation was assayed with the Cell Counting Kit-8 (Dojindo Molecular Technologies, Kumamoto, Japan) according to the manufacturer's instructions.
In general terms: Formazan colour is commonly taken as a measure of viable cells.

Series [2] deals with MCF7 tumors. Put plainly: In vivo tumor growth inhibition, MCF7 xenografts. Set-up: species or system nu/nu mice. To be noted: IV days 0, 4 and 8; IGF-MTX (long-R3-IGF-1-methotrexate) 10 nmol of MTX/g, free MTX 40 nmol/g. How it is done:
(§1) MCF7 cells (human breast adenocarcinoma cell line) were grown in Eagle's minimal essential medium supplemented with 0.1 mg/ml insulin and 10% FCS. The estrogen-dependent MCF7-L cell line was a gift from Deepali Sachdev of the University of Minnesota. MCF7-L cells were grown in modified IMEM medium (Invitrogen, Carlsbad, California, USA) supplemented with 0.1 mg/ml insulin. LNCaP cells (metastatic human prostatic adenocarcinoma) were grown in RPMI supplemented with glutamine and 10% FCS (Invitrogen, Carlsbad, California, USA). Cells were grown at 37° C. in a 5% CO2 humidified atmosphere. In each case, cells were grown to approximately two-thirds confluence, harvested by trypsinization, washed with rich medium and then washed twice with PBS and resuspended in phosphate buffered saline in BD matrigel matrix (Becton Dickinson, Franklin Lakes, New Jersey, USA). Cells were injected intradermally in mice on the back. An estrogen pellet (0.5 mg estradiol, 60-day release, Innovative Research of America, Sarasota, Florida, USA) was implanted subcutaneously between the shoulder blades two days before implanting MCF7 and MCF7-L cells. MCF7 and MCF7-L cells were implanted in 8-week-old female nu/nu mice. LNCaP cells were implanted in 8-week-old male nu/nu mice. The IGF-MTX conjugate was administered in 2 mM HCl, 1% glycerol. MTX was dissolved in PBS. […]

Series [3] relates to MCF7 cells. Put plainly: In vitro proliferation assay of MCF7 cells, tritiated thymidine (Example 15). In kind it is cell-based, human. On the procedure: MCF7 was cultured in Eagle's Minimum Essential Medium, with 0.01 mg/ml human recombinant insulin, 10% fetal bovine serum, and pen/strep. For in vitro proliferation assays it was plated at 8,000 cells per well in a 96-well plate. […] After 5 more days, 1 uCi tritiated thymidine was added per well in 50 ul fresh medium. Six hours later the cells were harvested and radioactivity counted.

The test system of series [4] is MCF7-L tumors. The series can be described thus: In vivo tumor growth inhibition, MCF7-L xenografts. More on the design: species or system nu/nu mice. To be noted: day 22; IV days 0 and 5; IGF-MTX (long-R3-IGF-1-methotrexate) 10 nmol of MTX/g, free MTX 40 nmol/g. How it is done:
as §1, with “mice.” for “mice. LNCaP cells were implanted in 8-week-old male nu/nu mice. The IGF-MTX conjugate was administered in 2 mM HCl, 1% glycerol. MTX was dissolved in PBS.”
The second in vivo study was conducted using an estrogen-dependent MCF7 strain, MCF7-L. Tumor cells were implanted, and mice were monitored for tumor growth. […]

The subject of series [5] is MCF-7 tumor cells. The series can be described thus: In vitro cytotoxicity assay: inhibition of proliferation of MCF-7 cells, CCK-8 (Example 6). In kind it is cell-based. To be noted: Homo sapiens, MCF7, read-out: IC50 (50% inhibition of cell proliferation).
Method: Day 0. Five-thousand MCF7 cells were plated per well in a 96-well test plate in 100 ul of rich media on day 0.
Day 1. A shadow plate was made for each test plate, with each well of the shadow plate containing media or 3× the intended final concentration of test agent in media in each well. As a negative control, media is used.
After making the shadow plate, 50 ul is transferred from each well of the shadow plate to the corresponding well of the test plate to generate the final concentrations of test agent in the wells of the test plate.
Day 5. Cell proliferation is determined by adding Dojindo CCK-8 reagent and incubating and measuring absorbance of the dye according to the manufacturer's instructions.
The subject of series [6] is MDS. To be noted: higher-risk patients, phase III trial; cited from earlier work.
The conditions of series [7]: rat, in vivo.
Details of series [8]: species or system Beagle dogs. To be noted: dog, in vivo. An excerpt:
Toxicokinetic (TK) parameters for free MTX were estimated from plasma concentration-time data arising from a 5-dose once weekly intravenous infusion study with insulin-like growth factor (IGF) MTX conjugate at low (0.5 μEq/kg), mid (2.0 μEq/kg) and high (4.0 μEq/kg) MTX equivalent dose levels. No consistent differences in the plasma levels of MTX were observed between animals of different genders and thus data from males and females were combined. Plasma levels of MTX increased with time both during and following a 1-hour intravenous infusion of the IGF-MTX conjugate. […] Both the AUC∞ and Cmax values were dose proportional. […] The pharmacokinetics of MTX following Day 29 of dosing were similar to those following Day 1 of dosing.
Following intravenous administration of the IGF-MTX conjugate in the dose range of 0.5-4.0 μEq/kg to Beagle dogs, serum levels of the IGF-MTX conjugate decreased quickly. There was no gender bias and an increase in serum exposure was observed on Day 29 compared to Day 1. […] The elimination of the IGF-MTX conjugate was marginally slower with successive doses, resulting in an increased plasma exposure. The elimination of the IGF-MTX conjugate preceded the development of maximal MTX concentrations.

Series [9] concerns soluble IGF binding proteins. To be noted: compared to wild-type IGF-1; Francis 1992, Tomas 1993, U.S. Pat. No. 4,876,242; cited from earlier work.
Series [10] can be described thus: Solubility of IGF-1R ligand-MTX conjugates. To be noted: phosphate buffered saline, or any neutral pH solution containing salt, over about 50 mM NaCl. The class given is physicochemical.
Series [11] has as its system LNCaP cells. To be noted: 48 hours, nM methotrexate groups, McTavish et al. 2009; cited from earlier work.
In series [12] the target is T1, dihydrofolate reductase (DHFR) (Homo sapiens, UniProt P00374).
T1 construct: purchased Sigma-Aldrich
T1 sequence (P00374 1-187): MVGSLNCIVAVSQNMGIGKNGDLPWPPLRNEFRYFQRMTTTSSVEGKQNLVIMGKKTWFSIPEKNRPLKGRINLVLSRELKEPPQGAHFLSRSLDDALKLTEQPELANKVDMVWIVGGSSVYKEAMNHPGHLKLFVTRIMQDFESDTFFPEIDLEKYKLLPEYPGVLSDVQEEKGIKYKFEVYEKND
Put plainly: Dihydrofolate reductase inhibition assay (Sigma-Aldrich kit). To be noted: IC50 in nEq/L divided by MTX per IGF; read-out: inhibition constant in terms of protein concentration. In kind it is biochemical. On the procedure: The experiments were done with the dihydrofolate reductase assay kit from Sigma-Aldrich (St. Louis, MO, USA), according to the manufacturer's instructions. In the assay dihydrofolate reductase is mixed with pH 7.5 buffer. […] It was incubated for 30 seconds to allow inhibitor binding. Then NADPH is added to 50 uM final concentration, and then dihydrofolic acid is added to 60 uM final concentration. The reaction is monitored by measuring absorbance at 340 nm.

Series [13] deals with LNCaP tumors. The series can be described thus: In vivo tumor growth inhibition, LNCaP xenografts. Set-up: species or system nu/nu mice. To be noted: LNCaP model, 8 nmol/g IGF-MTX vs. 50 nmol/g MTX. On the procedure:
as §1, with “back.” for “back. An estrogen pellet (0.5 mg estradiol, 60-day release, Innovative Research of America, Sarasota, Florida, USA) was implanted subcutaneously between the shoulder blades two days before implanting MCF7 and MCF7-L cells. MCF7 and MCF7-L cells were implanted in 8-week-old female nu/nu mice. LNCaP cells were implanted in 8-week-old male nu/nu mice. The IGF-MTX conjugate was administered in 2 mM HCl, 1% glycerol. MTX was dissolved in PBS.”
In a final in vivo study, prostate cancer LNCaP cells were implanted intradermally on day 0 in mice, which were then randomized to different treatment groups. […] Tumor size was much smaller in the groups treated with 8 nmol/g or 3.2 nmol/g of the IGF-MTX conjugate (dosage expressed as moles of each MTX molecule) compared to mice treated with higher doses of free MTX (50, 20 or 8 nmol/g). […]

Take `CN(Cc1cnc2nc(N)nc(N)c2n1)c1ccc(C(=O)N[C@@H](CCC(=O)O)C(=O)O)cc1` [Methotrexate, methotrexate]: the “inhibition of proliferation compared with IGF-MTX” value in series [1] is “significantly greater inhibition than IGF-MTX”. In addition, in series [2], the “tumor growth over 12 days of observation” value is “tumors continued to grow”. In addition, the IC50 is 17 nM in [3] (Homo sapiens, MCF7, parallel assay, free drug) and 88 nM in series [5]. Besides, in [3] (MCF-7 cells in vitro), the “IC50 of MTX lower than IGF-MTX” value is “about 50 fold”. The tumor growth inhibition result in [4] is recorded as “inhibited about equally”.

Consider `Nc1ncn([C@@H]2O[C@H](CO)[C@@H](O)[C@H]2O)c(=O)n1` [azacitidine], for which, in series [6], the patients with responses entry is listed as “approximately 50%” and the “survival at 2 years of follow-up compared to conventional care” value is “doubled”.

As for IGF-MTX, in [7], the decrease of platelets entry was “approximately 38%”, the “increase of mean spleen weight” value was 17 to 38%, the “mean increases or decreases in blood glucose” value is on record as −1.8±7 to 7.5±3.4 and the reduction in neutrophils is 50-57%. Also, the “reduction of WBC's” value in [7] is 5-35%. In series [8], the “apparent clearance of MTX” value lay in the range of 5.67 to 7.67 mL/min/kg, the “apparent volume of distribution of the IGF-MTX conjugate” value lay within 0.07 to 0.20 L/kg, the “decrease of apparent clearance on Day 29 compared to Day 1” value was 25-50% and the “mean residence time of the IGF-MTX conjugate” value fell in the range of 1.4 to 5.3 h. The “terminal half-life of the IGF-MTX conjugate” value in series [8] is 2.5 to 4.6 h. Also, in series [8] (iv), the “apparent clearance of the IGF-MTX conjugate” value was 0.33 to 0.83 mL/min/kg.

Consider “des(1-3)IGF1: lacks the first three residues of wild-type IGF-1, SEQ ID NO: 7 [reference compound]”, for which, in series [9], the “binding affinity to the soluble IGF binding proteins” value is “reduced binding affinity”.

For the molecule “insulin-MTX: insulin conjugated to methotrexate”, in series [10], the solubility result is reported as “low solubility”.

B1: LR3IGF-MTX (conjugate)
chain: MFPAMPLSSLFVNGPRTLCGALVDALQFVCGDRGFYFNKPTGYGSSSRRAPQTGIVDECCFRSCDLRRLEMYCAPLKPAKSEA
Consider B1, for which the IC50 in series [11] is around 1000 nM; in series [12] it was 35 nM. For the same molecule, the solubility result in series [10] is “low solubility”. Besides, in series [13], the “more effective than free MTX at fold lower molar dose of MTX groups” value is recorded as “at least 6 fold”.

B2: IGF132: variant of IGF-1, SEQ ID NO: 4, disclosed in U.S. Pat. No. 4,876,242 (protein)
chain: FVNQHLCGSHLVEALYLVCGDRGFYFNKPTGYGSSSRRAPQTGIVDECCFRSCDLRRLEMYCAPLKPAKSA
For the molecule B2, the “binding affinity to the soluble IGF binding proteins” value in [9] is “reduced binding affinity”.
